B1: Syntaxin-6 (Homo sapiens), O43752 (parent)
chain: MSMEDPFFVVKGEVQKAVNTAQGLFQRWTELLQDPSTATREEIDWTTNELRNNLRSIEWDLEDLDETISIVEANPRKFNLDATELSIRKAFITSTRQVVRDMKDQMSTSSVQALAERKNRQALLGDSGSQNWSTGTTDKYGRLDRELQRANSHFIEEQQAQQQLIVEQQDEQLELVSGSIGVLKNMSQRIGGELEEQAVMLEDFSHELESTQSRLDNVMKKLAKVSHMTSDRRQWCAIAILFAVLLVVLILFLVL
partner: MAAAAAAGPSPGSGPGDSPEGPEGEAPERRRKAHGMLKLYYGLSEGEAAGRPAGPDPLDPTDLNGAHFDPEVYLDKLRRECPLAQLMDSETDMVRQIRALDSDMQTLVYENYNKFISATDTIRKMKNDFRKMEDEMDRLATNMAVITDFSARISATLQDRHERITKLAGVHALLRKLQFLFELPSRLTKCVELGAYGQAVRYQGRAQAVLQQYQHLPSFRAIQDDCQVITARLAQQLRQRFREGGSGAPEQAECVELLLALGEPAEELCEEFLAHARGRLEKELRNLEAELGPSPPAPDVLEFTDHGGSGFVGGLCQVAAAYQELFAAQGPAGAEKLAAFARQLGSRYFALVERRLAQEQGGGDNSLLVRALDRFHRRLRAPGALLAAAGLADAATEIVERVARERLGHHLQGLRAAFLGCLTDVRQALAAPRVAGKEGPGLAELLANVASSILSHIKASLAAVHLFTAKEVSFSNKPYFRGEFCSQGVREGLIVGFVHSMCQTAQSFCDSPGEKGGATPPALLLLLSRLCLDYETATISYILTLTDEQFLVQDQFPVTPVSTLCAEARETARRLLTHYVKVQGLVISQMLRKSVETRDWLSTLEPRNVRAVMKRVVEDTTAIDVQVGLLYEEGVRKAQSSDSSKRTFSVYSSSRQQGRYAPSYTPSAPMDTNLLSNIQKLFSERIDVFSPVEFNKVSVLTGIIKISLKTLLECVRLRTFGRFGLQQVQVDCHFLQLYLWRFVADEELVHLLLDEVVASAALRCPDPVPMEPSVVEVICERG
B2: Vacuolar protein sorting-associated protein 51 homolog (Homo sapiens), Q9UID3-1 (parent)
chain: B1 partner
partner: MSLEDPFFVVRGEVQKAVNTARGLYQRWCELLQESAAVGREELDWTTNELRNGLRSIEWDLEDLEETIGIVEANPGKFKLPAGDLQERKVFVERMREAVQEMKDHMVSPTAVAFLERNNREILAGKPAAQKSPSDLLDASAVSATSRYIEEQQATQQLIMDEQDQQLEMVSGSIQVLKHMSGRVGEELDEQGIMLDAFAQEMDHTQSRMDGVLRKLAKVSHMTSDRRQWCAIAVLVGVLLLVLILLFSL
B3: Vacuolar protein sorting-associated protein 51 homolog (Homo sapiens), Q9UID3-1 (parent)
chain: B1 partner
partner: B1 chain
B4: Syntaxin-10 (Homo sapiens), O60499-1 (parent)
chain: B2 partner
partner: B1 partner

Variants of: B1
Conditions: with VPS51, Q9UID3-1

effect of a mutation on the interaction	Variant
disrupting interaction strength	R88M
disrupting interaction strength	D5L
disrupting interaction strength	F7L
disrupting interaction strength	P6A

Variants of: B2
Conditions: with STX10, O60499-1

effect of a mutation on the interaction	Variant
disrupting interaction strength	Y40A
disrupting interaction strength	L37A
disrupting interaction strength	Y41A

Variants of: B2
Conditions: with STX10, O60499-1
Remark: another data set of the same source

effect of a mutation on the interaction	Variant
disrupting interaction strength	Y40A;Y41A

Variants of: B3
Conditions: with stx6_human STX6, O43752

effect of a mutation on the interaction	Variant
disrupting interaction strength	Y40A
disrupting interaction strength	Y41A
disrupting interaction strength	L37A

Variants of: B3
Conditions: with stx6_human STX6, O43752
Remark: another data set of the same source

effect of a mutation on the interaction	Variant
disrupting interaction strength	Y40A;Y41A

Variants of: B4
Conditions: with VPS51, Q9UID3-1

effect of a mutation on the interaction	Variant
disrupting interaction strength	D5L
disrupting interaction strength	P6A
disrupting interaction strength	F7L
disrupting interaction strength	R88M

— IntAct's records for PubMed 23932592
